Measurements as given in PMC2806920.

Tests used:
[1] = molecular target: Truncated recombinant LRRK2-G2019S (aa 970-2527) (human) (UniProt Q5S007)
[2] = molecular target: Truncated recombinant LRRK2 wild-type (aa 970-2527) (human) (UniProt Q5S007)

Km for 4E-BP of its phosphorylation by LRRK2-G2019S (in vitro kinase assay, 33P incorporation, 12 nM LRRK2, 1.5-12 µM 4E-BP, Michaelis-Menten fit) [1]: 2.87 µM
Km for 4E-BP of its phosphorylation by LRRK2 (in vitro kinase assay, 33P incorporation, 12 nM LRRK2, 1.5-12 µM 4E-BP, Michaelis-Menten fit) [2]: 2.69 µM
Substance: 4E-BP (eukaryotic initiation factor 4E (eIF4E)-binding protein), His6-tagged 4E-BP1 (from UniProt Q13541 1-118) (natural protein)
